Data as given in patent US6046014.

How the values were obtained:
[1] = biological target: streptavidin-agarose (immobilized streptavidin) (Streptomyces avidinii) (UniProt P22629); test: affinity chromatography on streptavidin-agarose
[2] = biological target: streptavidin-agarose (immobilized streptavidin) (Streptomyces avidinii) (UniProt P22629); test: affinity chromatography: ammonium sulfate fraction passed over streptavidin-agarose

binding capacity (µg ASPHYA-ST per milliliter bed volume) [1]: 200
efficiency of binding [2]: 86%
Substance: Strep-tagged oat phytochrome A (ASPHYA-ST)
